The results in this text go back to patent publication EP3831849A1 (LamKap Bio beta AG, dated 2021).

Read-outs that look alike come from different tables or passages of the source.

Experiment [1] addresses T1, human CD47 expressed at the surface of MKN45 cells (human, UniProt Q08722 19-323).
T1 construct: whole, on cells; also called IAP
The experiment is described as follows: inhibition of SIRPα mouseFc binding to CD47 on MKN45 cells; imaging (CX5).

The target in experiment [2] is T2, human CEACAM5 expressed on MKN-45 wt cells (human, UniProt P06731 35-702).
T2 construct: MKN-45 cells also express CD47 and CEACAM6; also called CEACAM5 on MKN45
T2 sequence: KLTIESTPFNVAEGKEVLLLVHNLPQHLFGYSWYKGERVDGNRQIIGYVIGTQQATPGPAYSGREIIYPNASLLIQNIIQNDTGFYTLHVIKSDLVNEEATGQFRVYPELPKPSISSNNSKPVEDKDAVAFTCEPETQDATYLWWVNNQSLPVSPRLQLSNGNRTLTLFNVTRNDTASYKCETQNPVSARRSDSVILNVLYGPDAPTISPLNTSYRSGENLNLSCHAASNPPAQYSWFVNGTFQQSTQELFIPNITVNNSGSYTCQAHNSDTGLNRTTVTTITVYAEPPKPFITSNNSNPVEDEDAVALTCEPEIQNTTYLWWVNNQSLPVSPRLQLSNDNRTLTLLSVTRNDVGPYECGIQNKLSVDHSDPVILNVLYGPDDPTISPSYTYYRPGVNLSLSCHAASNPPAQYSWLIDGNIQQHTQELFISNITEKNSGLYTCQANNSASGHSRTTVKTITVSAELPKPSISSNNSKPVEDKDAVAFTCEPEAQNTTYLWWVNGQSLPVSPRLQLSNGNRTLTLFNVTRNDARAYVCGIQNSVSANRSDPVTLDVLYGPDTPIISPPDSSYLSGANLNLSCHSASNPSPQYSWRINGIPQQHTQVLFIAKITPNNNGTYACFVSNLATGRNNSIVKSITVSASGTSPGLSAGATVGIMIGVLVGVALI
The experiment is described as follows: flow cytometry on MKN-45 wt cells (express CEACAM5 and CD47). For orientation: In flow cytometry, cells or beads pass a laser one at a time.

Experiment [3] concerns the target T2, human CEACAM5 expressed on MKN-45 wt …. Put plainly: cell-based or functional assay.
Experiment [4] shares this target. The experiment is described as follows: cell-based or functional assay. This is another data set of the same source.

T1 sequence (Q08722 19-323): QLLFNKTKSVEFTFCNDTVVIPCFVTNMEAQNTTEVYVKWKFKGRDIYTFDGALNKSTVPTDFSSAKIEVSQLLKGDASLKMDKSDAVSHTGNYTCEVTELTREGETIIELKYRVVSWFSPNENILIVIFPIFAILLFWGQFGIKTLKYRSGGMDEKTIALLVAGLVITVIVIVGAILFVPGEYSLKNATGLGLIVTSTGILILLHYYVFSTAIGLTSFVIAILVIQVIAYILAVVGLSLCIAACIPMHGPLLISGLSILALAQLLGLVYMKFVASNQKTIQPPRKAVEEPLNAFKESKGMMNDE

B1: AC41K2 H-CL1 (bispecific antibody, human IgG1, kappa, lambda)
heavy: not shown
light 1: not shown
light 2: DIQMTQSPSSLSASVGDRVTITCRASQSISSYLNWYQQKPGKAPKLLIYAASSLQSGVPSRFSGSGSGTDFTLTISSLQPEDFATYYCQQMHPRAPKTFGGGTKLTVLGQPKAAPSVTLFPPSSEELQANKATLVCLISDFYPGAVTVAWKADSSPVKAGVETTTPSKQSNNKYAASSYLSLTPEQWKSHRSYSCQVTHEGSTVEKTVAPTECS
notes: CEACAM5xCD47 κλ body, IgG1, common heavy chain
What is called IC50 is the concentration that inhibits the measured activity by half. High values mean lower potency, low ones higher potency. Broadly, the EC50 is the midpoint of the concentration-response curve. Higher therefore signals a need for much substance. Take B1: the IC50 in experiment [1] was determined as 6.8 nM. Also, in experiment [2], the 50% effective concentration (EC50) amounted to 146 nM and the “Emax (MFI)” value worked out at 1.52e+06 MFI.

B2: AC43K2 H-CL1 (bispecific antibody, human IgG1, kappa, lambda)
heavy: not shown
light 1: not shown
light 2: DIQMTQSPSSLSASVGDRVTITCRASQSISSYLNWYQQKPGKAPKLLIYAASSLQSGVPSRFSGSGSGTDFTLTISSLQPEDFATYYCQQMHPRAPKTFGGGTKLTVLGQPKAAPSVTLFPPSSEELQANKATLVCLISDFYPGAVTVAWKADSSPVKAGVETTTPSKQSNNKYAASSYLSLTPEQWKSHRSYSCQVTHEGSTVEKTVAPTECS
notes: CEACAM5xCD47 κλ body, IgG1, common heavy chain; CEACAM arm light chain fully kappa, CD47 arm light chain hybrid
In turn, B2 came in with an IC50 in experiment [1] of 3.2 nM. Moreover, in experiment [2], the EC50 was found to be 121 nM and the “Emax (MFI)” value was 2.08e+06 MFI.

B3: K2AC49 (bispecific antibody, human IgG1, kappa, lambda)
heavy: not shown
light 1: QSVLTQPPSVSAAPGQKVTISCSGSSSNIFDSGVSWYQQLPGTAPKLLIYNHNERPSGIPDRFSGSKSGTSATLGITGLQTGDEADYYCGTWDFPPSRFVFGGGTKLTVLGQPKAAPSVTLFPPSSEELQANKATLVCLISDFYPGAVTVAWKADSSPVKAGVETTTPSKQSNNKYAASSYLSLTPEQWKSHRSYSCQVTHEGSTVEKTVAPTECS
light 2: not shown
For B3, the “EC50 (µg/mL) of phagocytosis” value in experiment [3] amounted to 0.3 µg/mL.

B4: K2AC41 (bispecific antibody, human IgG1, kappa, lambda)
heavy: not shown
light 1: DIQMTQSPSSLSASVGDRVTITCQASQEIAATLNWYQQKPGKAPKLLIYNYSTLETGVPSRFSGSGSGTDFTFTISSLQPEDIATYYCQQVGLNPENTTFGGGTKLTVLGQPKAAPSVTLFPPSSEELQANKATLVCLISDFYPGAVTVAWKADSSPVKAGVETTTPSKQSNNKYAASSYLSLTPEQWKSHRSYSCQVTHEGSTVEKTVAPTECS
light 2: not shown
notes: 6 is full length; CEACAM arm light chain hybrid (VK + lambda CL), CD47 arm (K2) fully kappa
In experiment [1], B4 had an IC50 of 3.7 nM. In experiment [2], the midpoint of the response, the EC50, lay at 145 nM and the “Emax (MFI)” value came out at 1.41e+06 MFI.

B5: K2AC42 (bispecific antibody, human IgG1, kappa, lambda)
heavy: not shown
light 1: DIQMTQSPSSLSASVGDRVTITCQASQRIARTLNWYQQKPGKAPKLLIYNFSALETGVPSRFSGSGSGTDFTFTISSLQPEDIATYYCQQVGLDPNLTTFGGGTKLTVLGQPKAAPSVTLFPPSSEELQANKATLVCLISDFYPGAVTVAWKADSSPVKAGVETTTPSKQSNNKYAASSYLSLTPEQWKSHRSYSCQVTHEGSTVEKTVAPTECS
light 2: not shown
notes: 6 is full length; CEACAM arm light chain hybrid, CD47 arm fully kappa
In the case of B5, in experiment [1], the 50% inhibitory concentration (IC50) turned out to be 2.9 nM. Moreover, in experiment [2], the EC50 came out at 123 nM and the “Emax (MFI)” value came out at 1.52e+06 MFI.

B6: K2AC43 (bispecific antibody, human IgG1, kappa, lambda)
heavy: not shown
light 1: DIQMTQSPSSLSASVGDRVTITCQASQNIPRTINWYQQKPGKAPKLLIYDISNLETGVPSRFSGSGSGTDFTFTISSLQPEDIATYYCQQVGLNPELTTFGGGTKLTVLGQPKAAPSVTLFPPSSEELQANKATLVCLISDFYPGAVTVAWKADSSPVKAGVETTTPSKQSNNKYAASSYLSLTPEQWKSHRSYSCQVTHEGSTVEKTVAPTECS
light 2: not shown
notes: as for B5
Take B6: the IC50 in experiment [1] was found to be 3.9 nM. Besides, in experiment [2], it took 135 nM to reach a half-maximal effect (EC50) and the “Emax (MFI)” value was determined as 1.77e+06 MFI.

B7: K2AC54 (bispecific antibody, human IgG1, kappa, lambda)
heavy: not shown
light 1: QSVLTQPPSVSGAPGQRVTISCTGSSSNIHDVGYVHWYQQLPGTAPKLLIYGASGRPSGVPDRFSGSKSGTSASLAITGLQAEDEADYYCQSYDTRQVVPTPVFGGGTKLTVLGQPKAAPSVTLFPPSSEELQANKATLVCLISDFYPGAVTVAWKADSSPVKAGVETTTPSKQSNNKYAASSYLSLTPEQWKSHRSYSCQVTHEGSTVEKTVAPTECS
light 2: not shown
notes: 6 is full length
For the molecule B7, the “EC50 (µg/mL) of phagocytosis” value in experiment [4] is 0.3 µg/mL. This molecule also showed a concentration for half-maximal inhibition (IC50) in experiment [1] of 0.16 nM. In experiment [2], the midpoint of the response, the EC50, lay at 19 nM and the “Emax (MFI)” value was determined as 2.75e+06 MFI.

B8: K2AC53 (bispecific antibody, human IgG1, kappa, lambda)
heavy: not shown
light 1: QSVLTQPPSVSGAPGQRVTISCTGSSSNIHDVGYVHWYQQLPGTAPKLLIYGASGRPSGVPDRFSGSKSGTSASLAITGLQAEDEADYYCQSYDGRAVFPTPVFGGGTKLTVLGQPKAAPSVTLFPPSSEELQANKATLVCLISDFYPGAVTVAWKADSSPVKAGVETTTPSKQSNNKYAASSYLSLTPEQWKSHRSYSCQVTHEGSTVEKTVAPTECS
light 2: not shown
notes: 6 is full length
With B8, the “EC50 (µg/mL) of phagocytosis” value in experiment [4] stood at 0.8 µg/mL. The molecule also had an IC50 in experiment [1] of 0.3 nM. Moreover, in experiment [2], the EC50 is 38 nM and the “Emax (MFI)” value was found to be 2.63e+06 MFI.

B9: K2AC55 (bispecific antibody, human IgG1, kappa, lambda)
heavy: not shown
light 1: QSVLTQPPSVSGAPGQRVTISCTGSSSNIHDVGYVHWYQQLPGTAPKLLIYGASGRPSGVPDRFSGSKSGTSASLAITGLQAEDEADYYCQSYDTSAVFPTPVFGGGTKLTVLGQPKAAPSVTLFPPSSEELQANKATLVCLISDFYPGAVTVAWKADSSPVKAGVETTTPSKQSNNKYAASSYLSLTPEQWKSHRSYSCQVTHEGSTVEKTVAPTECS
light 2: not shown
notes: 6 is full length
For the molecule B9, the “EC50 (µg/mL) of phagocytosis” value in experiment [4] came out at 0.9 µg/mL. The same molecule yielded an IC50 in experiment [1] of 1.6 nM. In addition, in experiment [2], the midpoint of the response, the EC50, lay at 221 nM and the “Emax (MFI)” value was determined as 3.9e+06 MFI.

B10: K2AC57 (bispecific antibody, human IgG1, kappa, lambda)
heavy: not shown
light 1: QSVLTQPPSVSGAPGQRVTISCTGSSSNIINNSYVHWYQQLPGTAPKLLIYAPSNRPSGVPDRFSGSKSGTSASLAITGLQAEDEADYYCQSYDTRFVVPTPVFGGGTKLTVLGQPKAAPSVTLFPPSSEELQANKATLVCLISDFYPGAVTVAWKADSSPVKAGVETTTPSKQSNNKYAASSYLSLTPEQWKSHRSYSCQVTHEGSTVEKTVAPTECS
light 2: not shown
notes: 6 is full length
Consider B10, for which, in experiment [4], the “EC50 (µg/mL) of phagocytosis” value was 1.6 µg/mL. The IC50 in experiment [1] stood at 1.1 nM. Further, in experiment [2], the EC50 stood at 91 nM and the “Emax (MFI)” value is 2.26e+06 MFI.

B11: K2AC56 (bispecific antibody, human IgG1, kappa, lambda)
heavy: not shown
light 1: QSVLTQPPSVSGAPGQRVTISCTGSSSNIINNSYVHWYQQLPGTAPKLLIYAPSNRPSGVPDRFSGSKSGTSASLAITGLQAEDEADYYCQSYDTTGVMPTPVFGGGTKLTVLGQPKAAPSVTLFPPSSEELQANKATLVCLISDFYPGAVTVAWKADSSPVKAGVETTTPSKQSNNKYAASSYLSLTPEQWKSHRSYSCQVTHEGSTVEKTVAPTECS
light 2: not shown
notes: 6 is full length
In the case of B11, the “EC50 (µg/mL) of phagocytosis” value in experiment [4] was 5 µg/mL. The molecule further yielded an IC50 in experiment [1] of 2.8 nM. Further, in experiment [2], the EC50 is 47 nM and the “Emax (MFI)” value came to 1.59e+06 MFI.

B12: K2AC52 (bispecific antibody, human IgG1, kappa, lambda)
heavy: not shown
light 1: QSVLTQPPSVSGAPGQRVTISCTGSSSNIHDVGYVHWYQQLPGTAPKLLIYGASGRPSGVPDRFSGSKSGTSASLAITGLQAEDEADYYCQSYDTKREFPTPVFGGGTKLTVLGQPKAAPSVTLFPPSSEELQANKATLVCLISDFYPGAVTVAWKADSSPVKAGVETTTPSKQSNNKYAASSYLSLTPEQWKSHRSYSCQVTHEGSTVEKTVAPTECS
light 2: not shown
notes: 6 is full length
As for B12, in experiment [4], the “EC50 (µg/mL) of phagocytosis” value was 1 µg/mL. Further, in experiment [1], the IC50 turned out to be 1.1 nM. In addition, in experiment [2], the EC50 was determined as 219 nM and the “Emax (MFI)” value came to 3.3e+06 MFI.

B13: K2AC50 (bispecific antibody, human IgG1, kappa, lambda)
heavy: not shown
light 1: QSALTQPASVSGSPGQSITISCTGTSSDVYEFRLVSWYQQHPGKAPKLMIYFDSLRPSGVSNRFSGSKSGNTASLTISGLQAEDEADYYCSSWDKFGYAFNSVFGGGTKLTVLGQPKAAPSVTLFPPSSEELQANKATLVCLISDFYPGAVTVAWKADSSPVKAGVETTTPSKQSNNKYAASSYLSLTPEQWKSHRSYSCQVTHEGSTVEKTVAPTECS
light 2: not shown
With B13, in experiment [3], the “EC50 (µg/mL) of phagocytosis” value is 0.07 µg/mL.
